Assay [1] deals with T1, ZAP70 tSH2-GFP (tandem SH2 domains of human ZAP70, amino acids 1-264, with C-terminal GFP) (human, UniProt P43403 1-264).
T1 construct: tandem SH2 domains of human ZAP70 (Zeta-chain-associated protein kinase 70), amino acids 1-264; Cloned into pET21 between NdeI and NotI; source: E. coli BL21 (DE3), purified (Ni2+-NTA, Sephacryl S-200 size exclusion); not shown: GFP, C-terminal, kept
T1 sequence (looked up): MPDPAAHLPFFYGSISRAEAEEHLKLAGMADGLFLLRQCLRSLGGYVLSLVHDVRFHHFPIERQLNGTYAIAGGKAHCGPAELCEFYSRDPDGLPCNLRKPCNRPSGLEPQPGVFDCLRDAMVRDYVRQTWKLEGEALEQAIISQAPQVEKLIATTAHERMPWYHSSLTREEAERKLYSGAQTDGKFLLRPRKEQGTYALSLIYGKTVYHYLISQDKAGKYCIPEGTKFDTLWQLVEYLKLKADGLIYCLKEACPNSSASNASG
The experiment in a line: single particle tracking by TIRF microscopy; biotinylated ITAM3 peptides immobilised on coverslips coated with poly-L-lysine-PEG-biotin and streptavidin; ZAP70 tSH2-GFP or tSH2-Halo-Alexa647 at 200 nM in PBS/BSA with 1 mM DTT; 37°C; distributions of binding times fitted with exponentials (slow phase of a two-phase decay for the biphosphorylated peptide). To be noted: both partners purified.

The target of assay [2] is T1, ZAP70 tSH2-GFP (tandem SH2 domains of …). The experiment in a line: SPR; Biacore S200, 37°C, HBS-EP (10 mM HEPES pH 7.4, 150 mM NaCl, 1 mM EDTA, 0.005% Tween P20), 50 µl/min; biotinylated peptides or Avi-CD3ζ ITAM3 immobilised on streptavidin-coupled CM5 chips, ZAP70 tSH2-GFP injected; 1:1 binding model, 'effective' constants for the biphosphorylated peptide; on Avi-CD3ζ ITAM3 also ABA injections of 500 nM ZAP70 with CD45 cytoplasmic domain. To be noted: both partners purified. (In general: Surface plasmon resonance follows binding to a sensor surface in real time, without labels.)

Square brackets hold non-standard residues; d marks the D form. Ends that are not written are not given here. * marks the point of attachment. Biotin = O=C1N[C@H]2[C@H](CS[C@H]2CCCCC(=O)*)N1; pY = N[C@@H](Cc1ccc(OP(=O)(O)O)cc1)C(=O)O

B1: ITAM3 C (C-monophosphorylated CD3ζ ITAM3 peptide) (peptide)
peptide: Biotin-GKGHDLLYQGLSTATKDT[pY]DALHMQ
notes: peptide derived from the membrane-distal ITAM of CD3ζ (ITAM3); also called ITAM C; monophosphorylated ITAM3 C; source: synthetic peptide; bought: PeptideSynthetics (>95% pure)
Molecule B1 showed a koff in assay [1] of 4.75 ± 0.14 s⁻¹.

B2: ITAM3 N (N-monophosphorylated CD3ζ ITAM3 peptide) (peptide)
peptide: Biotin-GKGHDLL[pY]QGLSTATKDTYDALHMQ
notes: peptide derived from the membrane-distal ITAM of CD3ζ (ITAM3); also called ITAM N; monophosphorylated ITAM3 N; source: synthetic peptide; bought: PeptideSynthetics (>95% pure)
As to B2, in assay [1], the koff came to 11.4 ± 0.011 s⁻¹.

B3: ITAM3 NC (biphosphorylated CD3ζ ITAM3 peptide) (peptide)
peptide: Biotin-GKGHDLL[pY]QGLSTATKDT[pY]DALHMQ
notes: peptide derived from the membrane-distal ITAM of CD3ζ (ITAM3); also called ITAM NC; biphosphorylated ITAM3; source: synthetic peptide; bought: PeptideSynthetics (>95% pure)
In the case of B3, in assay [1], the koff is 0.368 ± 0.011 s⁻¹. In assay [2], this molecule registered a Kd of 96 nM, a koff of 0.227 s⁻¹ and a kon of 1.89e+06 M⁻¹ s⁻¹.

As usually defined, the koff is the rate constant with which the complex falls apart. A lower koff goes with a long-lived complex. Broadly, the Kd is the equilibrium constant for the complex coming apart. High values mean a looser complex, low ones a tighter complex. A word on the kon: it is the rate constant with which the complex forms. The low end stands for slower complex formation, the high end for faster complex formation.
